Test results: publication PMC11218781, “The heat shock factor 20-HSF4-cellulose synthase A2 module regulates heat stress tolerance in maize”

B1: ZmCesA2-P2 probe (dsDNA)
DNA 1: ATTTACTACTGAAATTTATAAGGATTTGCA
DNA 2: TGCAAATCCTTATAAATTTCAGTAGTAAAT
B2: ZmHSF4-P1 probe (dsDNA)
DNA 1: GCCTTCCAGAACCTTCCTTTCCCGAAATAG
DNA 2: CTATTTCGGGAAAGGAAGGTTCTGGAAGG

Tests used:
ZmHSF20 [1] = biological target: T1, ZmHSF20 (Zea mays, UniProt K7U5Y9 1-318); experiment: EMSA; unlabeled probe competes; EMSA/Gel-Shift buffer (Beyotime GS009 kit), 4 °C, 1 h; salt and pH not stated; conditions: protein: recombinant; tags: His (pET28a); chain copies: 3; label: biotin; blunt
ZmHSF20 [2] = biological target: T1, ZmHSF20; experiment: EMSA; EMSA/Gel-Shift buffer (Beyotime GS009 kit), 4 °C, 1 h; salt and pH not stated; conditions: protein: recombinant; tags: His (pET28a); chain copies: 3; label: biotin; 5' overhang 1 nt on strand 1 as printed (reverse strand lacks the final C)

T1 sequence (K7U5Y9 entry or part of it): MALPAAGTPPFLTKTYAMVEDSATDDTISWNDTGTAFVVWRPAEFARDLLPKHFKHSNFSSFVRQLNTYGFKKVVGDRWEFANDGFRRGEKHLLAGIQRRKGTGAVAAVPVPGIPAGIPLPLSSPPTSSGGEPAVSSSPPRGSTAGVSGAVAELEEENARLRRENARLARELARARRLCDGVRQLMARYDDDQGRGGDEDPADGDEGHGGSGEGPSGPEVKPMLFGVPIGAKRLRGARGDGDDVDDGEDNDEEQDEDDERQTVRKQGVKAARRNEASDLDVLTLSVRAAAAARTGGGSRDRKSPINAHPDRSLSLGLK

| Binder | binding result (ZmHSF20 [1]) | binding result (ZmHSF20 [2]) |
| --- | --- | --- |
| B1 | binds |  |
| B2 |  | binds |
